Test results published in patent publication US20240272170A1 (QUANTUM SI, published 2024).

Columns and labels:
[1] = biological target: T1, QP1165 after cleavage to N-terminal leucine (LKQRVWK); assay: on-chip dynamic sequencing of QP1165, 500 nM PS1875 plus five recognizers, 11565 alignments
T1 peptide: LKQRVWK
Protocol: (§1) The semiconductor chip was placed in the sequencing device and a chip check was performed to test electronic circuit function and to optimize laser coupling alignment. The chip was then removed from the device socket and the chip was washed twice with 50 μL of 70% isopropanol, followed by four washes with 30 μL of wash buffer (50 mM MOPS pH 8.0, 60 mM potassium acetate, 50 mM glucose, 20 mM magnesium acetate, and surfactant mix) through a flow cell attached to the chip. A second chip check was then performed. The laser was then blocked via an integrated software-controlled shutter, peptide complex was added to a final concentration of 1-10 nM and mixed thoroughly, and the chip was incubated for 15 min. The chip was then washed six times with wash buffer, followed by addition of an imaging solution (wash buffer with 5 mM Trolox and an oxygen scavenging system). The laser was unblocked and the occupancy percentage (target 10-30%, Poisson distributed) was recorded by acquiring a photobleaching signal from a fluorophore attached to the peptide complex during 5 min of laser illumination. […] Data was recorded for 15 min. The laser was then blocked briefly and aminopeptidases were added to the sequencing reaction via the flow cell and mixed thoroughly (final concentration 2-8 μM PhTET2 and/or 20-80 μM PhTET3, as indicated according to the experiment). The laser was then unblocked, and data was recorded for 10 hours. For all runs, 30 μL of mineral oil was added to fluid reservoirs at each port of the flow cell to prevent evaporation during the run.

[2] = biological target: T2, QP1165 after cleavage to N-terminal isoleucine (IAFLKQRVWK); assay: as above
T2 peptide: IAFLKQRVWK
Protocol: as §1

[3] = biological target: T1, QP1165 after cleavage to N-terminal …; assay: on-chip dynamic sequencing of QP1165, 500 nM PS1875 plus five recognizers, 3369 alignments
[4] = biological target: T2, QP1165 after cleavage to N-terminal …; assay: as above
[5] = biological target: T1, QP1165 after cleavage to N-terminal …; assay: on-chip dynamic sequencing of QP1165, 500 nM PS1875 plus five recognizers, 7305 alignments
[6] = biological target: T2, QP1165 after cleavage to N-terminal …; assay: as above
[7] = biological target: T1, QP1165 after cleavage to N-terminal …; assay: on-chip dynamic sequencing of QP1165, PS1875 run, trace Aperture=430641
[8] = biological target: T1, QP1165 after cleavage to N-terminal …; assay: on-chip dynamic sequencing of QP1165, PS1875 run, trace Aperture=295010
[9] = biological target: T2, QP1165 after cleavage to N-terminal …; assay: as above
[10] = biological target: T1, QP1165 after cleavage to N-terminal …; assay: on-chip dynamic sequencing of QP1165, PS2132 run, trace Aperture=1826247
[11] = biological target: T1, QP1165 after cleavage to N-terminal …; assay: on-chip dynamic sequencing of QP1165, PS2121 run, trace Aperture=740473
[12] = biological target: T2, QP1165 after cleavage to N-terminal …; assay: as above
[13] = biological target: T2, QP1165 after cleavage to N-terminal …; assay: on-chip dynamic sequencing of QP1165, PS1875 run, trace Aperture=340501
[14] = biological target: T1, QP1165 after cleavage to N-terminal …; assay: on-chip dynamic sequencing of QP1165, PS2123 run, trace Aperture=501326
[15] = biological target: T2, QP1165 after cleavage to N-terminal …; assay: as above
[16] = biological target: T1, QP1165 after cleavage to N-terminal …; assay: on-chip dynamic sequencing of QP1165, 500 nM PS2123 plus five recognizers, 62511 alignments
[17] = biological target: T2, QP1165 after cleavage to N-terminal …; assay: as above
[18] = biological target: T2, QP1165 after cleavage to N-terminal …; assay: on-chip dynamic sequencing of QP1165, PS1875 run, trace Aperture=1311609
[19] = biological target: T1, QP1165 after cleavage to N-terminal …; assay: on-chip dynamic sequencing of QP1165, 500 nM PS2132 plus five recognizers, 36192 alignments
[20] = biological target: T2, QP1165 after cleavage to N-terminal …; assay: as above
[21] = biological target: T2, QP1165 after cleavage to N-terminal …; assay: on-chip dynamic sequencing of QP1165, PS2132 run, trace Aperture=376215

B1: PS1223 (designed binder)
single polypeptide, two PS961 units in tandem: MPTAASATESAIEDTPAPARPEVDGRTKPKRQPRYHVVLWDDDDHTYQYVVVMLRSLFGHPPSRGYRMAKEMDTQGRVIVLTTTREHAELKRDQIHAFGRDRLLARSKGSMKASIEAEEGSAGSAAGSGEFGSAGSAAGSGEFGSAGSAAGSGEFMPTAASATESAIEDTPAPARPEVDGRTKPKRQPRYHVVLWDDDDHTYQYVVVMLRSLFGHPPSRGYRMAKEMDTQGRVIVLTTTREHAELKRDQIHAFGRDRLLARSKGSMKASIEAEE
notes: dye-labelled recognizer for N-terminal L, I, V in the six-recognizer runs; also called PS1223 (LIV)
IPD (interpulse duration) [1]: 17.1 s
PD (pulse duration) [1]: 0.59 s
IPD (interpulse duration) [2]: 8.79 s
PD (pulse duration) [2]: 1.01 s
IPD (interpulse duration) [3]: 15.3 s
PD (pulse duration) [3]: 0.66 s
IPD (interpulse duration) [4]: 7.33 s
PD (pulse duration) [4]: 1.18 s
IPD (interpulse duration) [5]: 15.4 s
PD (pulse duration) [5]: 0.65 s
IPD (interpulse duration) [6]: 8.02 s
PD (pulse duration) [6]: 1.15 s
PD of a recognition segment in an example trace [7]: 0.64 s
PD of a recognition segment in an example trace [8]: 3.19 s
PD of a recognition segment in an example trace [9]: 0.48 s
PD of a recognition segment in an example trace [10]: 0.52 s
PD of a recognition segment in an example trace [11]: 0.49 s
PD of a recognition segment in an example trace [12]: 0.5 s
PD of a recognition segment in an example trace [13]: 0.49 s
PD of a recognition segment in an example trace [14]: 0.39 s
PD of a recognition segment in an example trace [15]: 0.51 s
IPD (interpulse duration) [16]: 17.3 s
PD (pulse duration) [16]: 0.54 s
IPD (interpulse duration) [17]: 9.24 s
PD (pulse duration) [17]: 0.73 s
PD of a recognition segment in an example trace [18]: 0.61 s
IPD (interpulse duration) [19]: 17.4 s
PD (pulse duration) [19]: 0.54 s
IPD (interpulse duration) [20]: 9.74 s
PD (pulse duration) [20]: 0.66 s
PD of a recognition segment in an example trace [21]: 0.49 s
